Experimental findings from paper PMC5138847 (Scientific Reports, 2016) are described below.

Usually Km stands for the substrate concentration at which the rate is half of its maximum. As a reminder, the kcat is the number of substrate molecules converted per active site and unit of time at saturation. By kcat/Km is commonly meant the second-order rate constant that governs catalysis at low substrate concentration. The term stoichiometry N denotes a count of units in the complex or per binding partner.

The target in data set [1] is T1, DrUox (zebrafish urate oxidase, uricase) (Danio rerio, UniProt Q6DG85).
T1 construct: gene uox; full length, 298 aa; N-terminal 6xHis tag (pET28b) for wt and F216S kinetics, untagged for crystals; E. coli BL21-CodonPlus(DE3); homotetramer
T1 sequence (Q6DG85 1-298): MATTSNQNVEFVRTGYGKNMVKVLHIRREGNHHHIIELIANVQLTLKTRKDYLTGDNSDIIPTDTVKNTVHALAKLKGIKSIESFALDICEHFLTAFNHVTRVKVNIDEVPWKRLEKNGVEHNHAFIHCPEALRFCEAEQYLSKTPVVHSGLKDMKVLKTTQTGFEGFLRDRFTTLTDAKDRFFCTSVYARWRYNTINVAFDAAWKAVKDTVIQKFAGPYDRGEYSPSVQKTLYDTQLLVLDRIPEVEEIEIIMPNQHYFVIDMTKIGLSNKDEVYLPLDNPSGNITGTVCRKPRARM
The data set is described as follows: UV absorbance, global fit to competitive inhibition. The class given is biochemical. The note with it: read-out: Xanthine / Ki.

The target of data set [2] is T2, DrUox (zebrafish urate oxidase, uricase) (Danio rerio, UniProt Q6DG85, F216S).
T2 construct: gene uox; full length, 298 aa; N-terminal 6xHis tag (pET28b) for wt and F216S kinetics, untagged for crystals; E. coli BL21-CodonPlus(DE3); homotetramer
T2 sequence (Q6DG85 1-298 F216S): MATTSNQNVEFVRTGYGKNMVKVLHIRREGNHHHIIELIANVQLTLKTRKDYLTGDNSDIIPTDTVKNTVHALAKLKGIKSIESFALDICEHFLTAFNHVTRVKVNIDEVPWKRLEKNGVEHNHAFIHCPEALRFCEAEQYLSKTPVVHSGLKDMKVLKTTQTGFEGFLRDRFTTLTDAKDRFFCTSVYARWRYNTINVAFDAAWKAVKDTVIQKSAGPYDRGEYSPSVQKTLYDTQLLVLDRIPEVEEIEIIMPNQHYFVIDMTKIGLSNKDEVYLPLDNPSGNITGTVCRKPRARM
Briefly: UV absorbance at […] nm, global fit to competitive inhibition. The format is biochemical. Particulars: read-out: Xanthine / Ki.

Substrate in the data set “purified protein”: O=c1[nH]c(=O)c2[nH]c(=O)[nH]c2[nH]1
The data set is described as follows: purified protein. The note with it: 100 mM potassium phosphate pH 7.6, 25 °C, equimolar DrUrah.

Data set [3] concerns the molecule itself. The data set is described as follows: SEC; HPLC-SEC on a Superdex 200 increase 3.2/300 column, native conditions, about 13 ug of each sample, elution monitored at 280 nm, calibrated with standards. Background: SEC sorts molecules by how far they enter the pores of the column.
Data set [4] deals with the molecule itself. Briefly: crystal structure; untagged DrUox 10 mg/ml (10 mM Tris-HCl pH 7.6, 1 mM EDTA), crystallised in 0.1 M Tris-HCl pH 8.5, 8% PEG 8000; space group P21, two tetramers in the asymmetric unit; 2.8 A.

As to `O=c1[nH]c(=O)c2[nH]cnc2[nH]1` [xanthine], the Ki in data set [1] came out at 4.3 ± 0.27 µM; in data set [2], 59.2 ± 8.2 µM.

B1: DrUox (zebrafish urate oxidase, uricase) (Danio rerio) (protein)
chain: MATTSNQNVEFVRTGYGKNMVKVLHIRREGNHHHIIELIANVQLTLKTRKDYLTGDNSDIIPTDTVKNTVHALAKLKGIKSIESFALDICEHFLTAFNHVTRVKVNIDEVPWKRLEKNGVEHNHAFIHCPEALRFCEAEQYLSKTPVVHSGLKDMKVLKTTQTGFEGFLRDRFTTLTDAKDRFFCTSVYARWRYNTINVAFDAAWKAVKDTVIQKFAGPYDRGEYSPSVQKTLYDTQLLVLDRIPEVEEIEIIMPNQHYFVIDMTKIGLSNKDEVYLPLDNPSGNITGTVCRKPRARM
Turning to B1, in “purified protein”, the Km was found to be 11 ± 1 µM, the kcat was 3.95 s⁻¹ and the kcat/Km turned out to be 360000 M⁻¹ s⁻¹.

B2: zebrafish urate oxidase F216S mutant, His-tagged (enzyme, zebrafish (Danio rerio), UniProt Q6DG85 1-298, looked up)
chain: MATTSNQNVEFVRTGYGKNMVKVLHIRREGNHHHIIELIANVQLTLKTRKDYLTGDNSDIIPTDTVKNTVHALAKLKGIKSIESFALDICEHFLTAFNHVTRVKVNIDEVPWKRLEKNGVEHNHAFIHCPEALRFCEAEQYLSKTPVVHSGLKDMKVLKTTQTGFEGFLRDRFTTLTDAKDRFFCTSVYARWRYNTINVAFDAAWKAVKDTVIQKSAGPYDRGEYSPSVQKTLYDTQLLVLDRIPEVEEIEIIMPNQHYFVIDMTKIGLSNKDEVYLPLDNPSGNITGTVCRKPRARM
notes: also called F216S DrUox; mutant DrUox; source: E. coli BL21-CodonPlus(DE3), purified (Talon cobalt resin)
On to B2, for which, in the data set “purified protein”, the Michaelis-Menten constant (Km) worked out at 284 ± 31 µM, the kcat was determined as 3.99 s⁻¹ and the kcat/Km came out at 14000 M⁻¹ s⁻¹. For the same molecule, the “stoichiometry N” value in data set [3] is 4.

B3: zebrafish urate oxidase, His-tagged wild type (enzyme, zebrafish (Danio rerio), UniProt Q6DG85 1-298, looked up)
chain: MATTSNQNVEFVRTGYGKNMVKVLHIRREGNHHHIIELIANVQLTLKTRKDYLTGDNSDIIPTDTVKNTVHALAKLKGIKSIESFALDICEHFLTAFNHVTRVKVNIDEVPWKRLEKNGVEHNHAFIHCPEALRFCEAEQYLSKTPVVHSGLKDMKVLKTTQTGFEGFLRDRFTTLTDAKDRFFCTSVYARWRYNTINVAFDAAWKAVKDTVIQKFAGPYDRGEYSPSVQKTLYDTQLLVLDRIPEVEEIEIIMPNQHYFVIDMTKIGLSNKDEVYLPLDNPSGNITGTVCRKPRARM
notes: also called wt DrUox; His-tagged wt; source: E. coli BL21-CodonPlus(DE3), purified (Talon cobalt resin)
Turning to B3, the “stoichiometry N” value in data set [3] worked out at 4.

B4: zebrafish (Danio rerio) urate oxidase, untagged wild type (enzyme, UniProt Q6DG85 1-298, looked up)
chain: MATTSNQNVEFVRTGYGKNMVKVLHIRREGNHHHIIELIANVQLTLKTRKDYLTGDNSDIIPTDTVKNTVHALAKLKGIKSIESFALDICEHFLTAFNHVTRVKVNIDEVPWKRLEKNGVEHNHAFIHCPEALRFCEAEQYLSKTPVVHSGLKDMKVLKTTQTGFEGFLRDRFTTLTDAKDRFFCTSVYARWRYNTINVAFDAAWKAVKDTVIQKFAGPYDRGEYSPSVQKTLYDTQLLVLDRIPEVEEIEIIMPNQHYFVIDMTKIGLSNKDEVYLPLDNPSGNITGTVCRKPRARM
notes: cDNA IMAGE:100059545; In the crystal, electron density runs from Gly8 to Pro294; Cys129 forms an inter-subunit disulfide (chains A-C and B-D); also called DrUox; Uox; source: E. coli BL21-CodonPlus(DE3), purified (xanthine-agarose column, eluted with urate)
As to B4, the “stoichiometry N” value in data set [4] was found to be 4.
